Experiment [1] deals with epidermal growth factor receptor (EGFR), expressed in sensor cells as fusion protein 1 (mNpu^N-EGFR) and fusion protein 2 (EGFR-Npu^C-rMTS-mCherry) (UniProt P00533).
For experiment [2] the target is unchanged. This is another data set of the same source.

Turning to “epidermal growth factor (EGF) (from UniProt P01133 971-1023) (ligand)”, in experiment [1], the co-localisation (Pearson's r) of mCherry with mitochondrial stain in sensor cells treated with EGF 0.001-100 ng/mL for 1 h (untreated control 0.08) turned out to be 0.87 Pearson's r and the limit of detection (LOD) of EGF by the sensor cells (mCherry translocation to mitochondria) is 0.1 ng/mL. Further, in experiment [2], the co-localisation (Pearson's r) of mCherry with mitochondrial stain in EGF-treated sensor cells (agonist/antagonist screen; untreated control 0.1) was determined as 0.8 Pearson's r; the co-localisation (Pearson's r) of mCherry with mitochondrial stain in sensor cells co-treated with EGF and Cetuximab (400 nM) (EGF alone 0.8) came to 0.1 Pearson's r.
Take “transforming growth factor-α (TGF-α) (from UniProt P01135 40-89) (ligand)”: the co-localisation (Pearson's r) of mCherry with mitochondrial stain in sensor cells treated with TGF-α (100 ng/mL) (untreated control 0.1) in experiment [2] amounted to 0.8 Pearson's r.

The values above are taken from PMC10045995.
